For the assay, the target named is T1, human CCX CKR with N-terminal Flag epitope, stably expressed on HEK293 cells, Q9NPB9.
T1 chain: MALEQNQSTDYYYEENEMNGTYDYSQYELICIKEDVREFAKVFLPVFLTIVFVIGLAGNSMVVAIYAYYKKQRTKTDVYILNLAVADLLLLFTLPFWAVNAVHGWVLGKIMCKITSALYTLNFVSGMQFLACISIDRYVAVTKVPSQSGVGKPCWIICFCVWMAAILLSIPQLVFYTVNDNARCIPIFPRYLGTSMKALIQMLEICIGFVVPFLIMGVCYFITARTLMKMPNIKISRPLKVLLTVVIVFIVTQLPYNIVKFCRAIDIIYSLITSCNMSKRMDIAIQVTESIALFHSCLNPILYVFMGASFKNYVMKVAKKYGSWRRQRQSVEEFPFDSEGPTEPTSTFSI
Kind of assay: 125I-ELC competition binding. The conditions noted are these: ligand; chains chain; remark: other sources report otherwise.

Broadly, the IC50 is the concentration needed to halve the response being measured. A low value points to higher potency.

B1: BLC (B-lymphocyte chemoattractant), O43927 23-109 (protein)
chain: VLEVYYTSLRCRCVQESSVFIPRRFIDRIQILPRGNGCPRKEIIVWKKNKSIVCVDPQAEWIQRMMEVLRKRSSSTLPVPVFKRKIP
Molecule B1 had an IC50 of 140 nM.

These data come from patent US6998239.
